The labels stand for the following.
T1: PUF4 RNA-binding domain (Saccharomyces cerevisiae, UniProt P25339 537-888)
T1 sequence: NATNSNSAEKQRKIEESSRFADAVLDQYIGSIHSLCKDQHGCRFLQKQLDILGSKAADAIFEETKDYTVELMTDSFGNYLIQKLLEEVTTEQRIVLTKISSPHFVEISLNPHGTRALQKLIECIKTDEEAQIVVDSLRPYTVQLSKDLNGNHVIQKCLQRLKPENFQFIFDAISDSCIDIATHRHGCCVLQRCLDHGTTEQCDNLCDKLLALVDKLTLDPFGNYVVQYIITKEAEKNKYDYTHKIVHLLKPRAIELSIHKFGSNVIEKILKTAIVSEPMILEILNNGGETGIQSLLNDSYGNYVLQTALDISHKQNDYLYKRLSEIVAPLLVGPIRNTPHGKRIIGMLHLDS

B1: Id_ii_S1_P3E.4_K3.3_C3.2_[C-2T]_H3.3_A3.1_F3.1_T3.2 (ssRNA)
RNA: UCUCUUUUACACUAUAUAUCUCUU
B2: Id_ii_S1_P3E.4_K3.3_C3.2_[C-2T]_[T-1C]_H3.3_A3.1_F3.1_T3.2_[A10T] (ssRNA)
RNA: UCUCUUUCACACUAUAUUUCUCUU
B3: Id_ii_S1_P3E.4_K3.3_C3.2_[C-2G]_[T-1C]_H3.3_A3.1_F3.1_T3.2_[T9C]_[A10T] (ssRNA)
RNA: UCUCUUGCACACUAUACUUCUCUU
B4: Id_ii_S1_P3E.4_K3.3_C3.2_[C-2A]_[T-1C]_H3.3_A3.1_F3.1_T3.2_[T9A]_[A10C] (ssRNA)
RNA: UCUCUUACACACUAUAACUCUCUU
B5: Id_ii_S1_P3E.4_K3.3_C3.2_[C-2T]_H3.3_A3.1_F3.1_T3.2_[T9C] (ssRNA)
RNA: UCUCUUUUACACUAUACAUCUCUU
B6: Ib_S1_P4E.1_K4.1_C4.1_H4.1_[G2A]_A4.1_[A6C]_F4.1_T4.1 (ssRNA)
RNA: UCUCUUUAUAUCUUAUCUCUU
B7: Id_ii_S1_P3E.4_K3.3_C3.2_[C-2T]_H3.3_A3.1_F3.1_T3.2_[T9C]_[A10C] (ssRNA)
RNA: UCUCUUUUACACUAUACCUCUCUU
B8: Id_ii_S1_P3E.4_K3.3_C3.2_[C-2G]_[T-1C]_H3.3_A3.1_F3.1_T3.2_[T9C]_[A10G] (ssRNA)
RNA: UCUCUUGCACACUAUACGUCUCUU
B9: Id_ii_S1_P3E.4_K3.3_C3.2_[C-2T]_H3.3_A3.1_F3.1_T3.2_[T9C]_[A10T] (ssRNA)
RNA: UCUCUUUUACACUAUACUUCUCUU
B10: Id_ii_S1_P3E.4_K3.3_C3.2_[C-2A]_[T-1G]_H3.3_A3.1_F3.1_T3.2_[T9A] (ssRNA)
RNA: UCUCUUAGACACUAUAAAUCUCUU
B11: Id_ii_S1_P3E.4_K3.3_C3.2_[C-2A]_[T-1G]_H3.3_A3.1_F3.1_T3.2_[T9C] (ssRNA)
RNA: UCUCUUAGACACUAUACAUCUCUU
B12: Id_ii_S1_P3E.4_K3.3_C3.2_[C-2G]_H3.3_A3.1_F3.1_T3.2_[A10C] (ssRNA)
RNA: UCUCUUGUACACUAUAUCUCUCUU
B13: Id_ii_S1_P3E.4_K3.3_C3.2_[C-2A]_[T-1A]_H3.3_A3.1_F3.1_T3.2_[A10T] (ssRNA)
RNA: UCUCUUAAACACUAUAUUUCUCUU
B14: Id_ii_S1_P3E.4_K3.3_C3.2_[C-2G]_H3.3_A3.1_F3.1_T3.2_[T9A]_[A10T] (ssRNA)
RNA: UCUCUUGUACACUAUAAUUCUCUU
B15: Id_ii_S1_P3E.3_K3.2_C3.2_H3.2_A3.1_F3.1_T3.2_[T9C]_[A10C] (ssRNA)
RNA: UCUCUUCUUAUAUAUACCUCUCUU
B16: Id_ii_S1_P3E.4_K3.3_C3.2_[C-2A]_[T-1C]_H3.3_A3.1_F3.1_T3.2_[T9G]_[A10T] (ssRNA)
RNA: UCUCUUACACACUAUAGUUCUCUU
B17: Id_ii_S1_P3E.3_K3.2_C3.2_H3.2_A3.1_F3.1_T3.2_[T9C] (ssRNA)
RNA: UCUCUUCUUAUAUAUACAUCUCUU
B18: Id_ii_S1_P3E.3_K3.2_C3.2_H3.2_A3.1_F3.1_T3.2_[T9C]_[A10T] (ssRNA)
RNA: UCUCUUCUUAUAUAUACUUCUCUU
B19: Id_ii_S1_P3E.4_K3.3_C3.2_[C-2T]_H3.3_A3.1_F3.1_T3.2_[A10C] (ssRNA)
RNA: UCUCUUUUACACUAUAUCUCUCUU
B20: Id_ii_S1_P3E.4_K3.3_C3.2_[C-2A]_[T-1G]_H3.3_A3.1_F3.1_T3.2_[T9C]_[A10C] (ssRNA)
RNA: UCUCUUAGACACUAUACCUCUCUU
B21: Id_ii_S1_P3E.4_K3.3_C3.2_[C-2A]_[T-1A]_H3.3_A3.1_F3.1_T3.2_[T9A] (ssRNA)
RNA: UCUCUUAAACACUAUAAAUCUCUU
B22: Id_ii_S1_P3E.3_K3.2_C3.2_H3.2_A3.1_F3.1_T3.2_[A10G] (ssRNA)
RNA: UCUCUUCUUAUAUAUAUGUCUCUU
B23: Ib_S1_P4E.1_K4.1_C4.1_H4.1_[G2T]_A4.1_[A6T]_F4.1_T4.1 (ssRNA)
RNA: UCUCUUUUUAUUUUAUCUCUU
B24: Id_ii_S1_P3E.4_K3.3_C3.2_[C-2A]_[T-1G]_H3.3_A3.1_F3.1_T3.2_[T9A]_[A10T] (ssRNA)
RNA: UCUCUUAGACACUAUAAUUCUCUU
B25: Id_ii_S1_P3E.4_K3.3_C3.2_[C-2A]_[T-1C]_H3.3_A3.1_F3.1_T3.2_[T9G] (ssRNA)
RNA: UCUCUUACACACUAUAGAUCUCUU
B26: Id_ii_S1_P3E.4_K3.3_C3.2_[C-2G]_H3.3_A3.1_F3.1_T3.2 (ssRNA)
RNA: UCUCUUGUACACUAUAUAUCUCUU
B27: Id_ii_S1_P3E.4_K3.3_C3.2_[C-2A]_[T-1A]_H3.3_A3.1_F3.1_T3.2_[T9C] (ssRNA)
RNA: UCUCUUAAACACUAUACAUCUCUU
B28: Id_ii_S1_P3E.4_K3.3_C3.2_[C-2A]_[T-1C]_H3.3_A3.1_F3.1_T3.2_[A10T] (ssRNA)
RNA: UCUCUUACACACUAUAUUUCUCUU
B29: Id_ii_S1_P3E.4_K3.3_C3.2_[C-2T]_[T-1C]_H3.3_A3.1_F3.1_T3.2_[T9A] (ssRNA)
RNA: UCUCUUUCACACUAUAAAUCUCUU

Kd data for 29 molecules are collected here from paper PMC9352680, “A comprehensive thermodynamic model for RNA binding by the Saccharomyces cerevisiae Pumilio protein PUF4”.

A word on the Kd: it is a measure of binding affinity in units of concentration. Read a low Kd as tighter binding.

The target in this data set is T1, PUF4 RNA-binding domain. Briefly: Mg; RNA-MaP; 20 mM Na-HEPES pH 7.4, 30 mM KOAc, 0.75 mM MgCl2, 0.1% Tween-20, 5% glycerol, 0.1 mg/mL BSA, 2 mM DTT; 25 C; 0.0125-409.6 nM protein. Conditions: tags: N-His6-TEV cleaved; C-SNAP kept, Cy3B-labelled; label: tethered on chip by stalled RNA polymerase.
For the molecule B1, binding was characterised by a dissociation constant (Kd) of 1.03 µM. Next, B2: above 2.3 µM; B3: 0.122 µM; B4: above 2.3 µM. B5 had a dissociation constant Kd of 1.14 µM. With B6, the Kd came to 0.672 µM.

As to B7, the Kd came to 1.91 µM. Take B8: the Kd is 0.671 µM.

The molecule B9 gave an equilibrium dissociation constant (Kd) of 1.22 µM. Next, B10: above 2.3 µM; B11: above 2.3 µM; B12: 0.000836 µM. In the case of B13 it was above 2.3 µM; in that of B14, 0.00116 µM; in that of B15, 1.3 µM.

B16 came in with a Kd above 2.3 µM.

For the molecule B17, the dissociation constant Kd turned out to be 0.907 µM. In turn, B18 showed a dissociation constant (Kd) of 0.634 µM. Turning to B19, the equilibrium dissociation constant (Kd) was 1.38 µM. In the case of B20 it was above 2.3 µM.

The molecule B21 yielded a Kd above 2.3 µM. Next, B22: 0.499 µM. In the case of B23 it was above 2.3 µM. The molecule B24 returned a dissociation constant (Kd) above 2.3 µM.

Molecule B25 showed an equilibrium dissociation constant (Kd) above 2.3 µM. B26 registered a Kd of 0.000819 µM. In the case of B27 it was above 2.3 µM; in that of B28, above 2.3 µM.

B29 returned a dissociation constant Kd above 2.3 µM.
